For one series, the target named is YY1-DBD (UniProt P25490 286-414). Briefly: ITC.
For the next series, the target named is T1, FKBP25 (FKBP3) wild type (Homo sapiens, UniProt Q00688 1-224).
T1 sequence: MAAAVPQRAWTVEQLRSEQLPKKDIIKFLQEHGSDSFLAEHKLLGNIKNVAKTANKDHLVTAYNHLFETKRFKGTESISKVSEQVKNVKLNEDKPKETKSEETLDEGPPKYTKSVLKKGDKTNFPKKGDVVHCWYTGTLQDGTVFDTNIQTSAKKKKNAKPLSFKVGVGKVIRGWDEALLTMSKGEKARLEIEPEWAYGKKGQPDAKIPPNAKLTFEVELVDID
Briefly: NMR PRE.

Chain of YY1-DBD (P25490 286-414): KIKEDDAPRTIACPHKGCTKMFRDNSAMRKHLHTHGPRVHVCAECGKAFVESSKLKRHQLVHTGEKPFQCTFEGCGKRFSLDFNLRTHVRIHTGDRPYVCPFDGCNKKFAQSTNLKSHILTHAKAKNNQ

B1: DNAYY1 23-bp (dsDNA)
DNA 1: AGGGTCTCCATTTTGAAGCATGC
DNA 2: GCATGCTTCAAAATGGAGACCCT
Consider B1, for which the affinity with YY1-DBD, expressed as Kd, was 390 ± 600 nM.

B2: DNA-1 (dT-EDTA at position 5) (dsDNA)
DNA 1: AGGGTCTCCATTTTGAAGCATGC
DNA 2: GCATGCTTCAAAATGGAGACCCT
modifications: dT-EDTA at T5 of strand 1 (Mn2+ or Ca2+ chelated)
In the case of B2, the binding result with FKBP25 (FKBP3) wild type is given as “binds”.

B3: DNA-2 (dT-EDTA at position 27) (dsDNA)
DNA 1: AGGGTCTCCATTTTGAAGCATGC
DNA 2: GCATGCTTCAAAATGGAGACCCT
modifications: dT-EDTA at residue 27 (T4 of strand 2; numbering 24-46 on antisense)
Turning to B3, in the series with FKBP25 (FKBP3) wild type, the binding result is reported as “binds”.

The record behind these values is article PMC4824100.
